Among the data in publication PMC6345565 are Ki values, retold here.

The experiment deals with PICK1 WT without SNAP-tag (rat (Rattus norvegicus)), Q9EP80. Briefly: fluorescence polarisation; competition: increasing unlabelled peptide, fixed 70% saturating PICK1 with OrG DAT C13; 50 mM Tris pH 7.4, 125 mM NaCl, 1 mM DTT, 0.01% Triton X-100; on ice; apparent Ki. For orientation: In fluorescence polarisation assays a small probe gives low polarisation when free and higher when bound to something large.

B1: unlabeled peptide of the DAT C-terminus (competitor in fluorescence polarisation) (peptide)
chain: EVRQFTLRHWLKV
modifications: not checked
As to B1, the Ki worked out at 2100 nM.
